Test results taken from patent US12180473B2, “Chimeric RNA-driven genomic rearrangement in mammalian cells” (priority 2018, dated 2024).
Entries after “also recorded” stand apart in the source; their conditions may differ.

Key:
[1] = system: TMPRSS2-ETV1 fusion; assay type: cell-based, human
Procedure: (§1) DHT was added at the final concentration of 0.9 μM six hours post transfection. Following overnight incubation, cells were then treated with 4 μg/ml α-amanitin for various time periods (0, 2, 6, 12 and 24 hours). Cells were then revived in fresh medium containing 0.9 μM DHT without α-amanitin and RT-PCR was performed for either TMPRSS2-ERG or TMPRSS2-ETV1 fusion.

[2] = system: TMPRSS2-ERG fusion; assay type: cell-based, human
Procedure: as §1

[3] = system: TMPRSS2-ERG fusion; experiment: RT-PCR detection of induced endogenous TMPRSS2-ERG fusion transcript in LNCaP cells expressing input RNA; conditions: for induction of endogenous TMPRSS2-ERG fusion transcript (RT-PCR): LNCaP cells transfected with input RNA plasmid, DHT for 3 days
Procedure: (§2) LNCaP cells were cultured in this special medium for 24 hrs prior to plasmid transfection.
(§3) Transfection was performed using Turbofect transfection reagent (Thermo Scientific, #R0531) according to manufacturer's protocol. Briefly, 1 μg of a particular plasmid was first diluted in 100 μl of the serum-free DMEM followed by immediate mixing by pipetting. 4 μl of the transfection reagent was then added to the diluted DNA followed by mixing and incubation for 20 min. The DNA/transfection reagent mixture was then added drop wise to a well containing LNCaP cells in 1 ml medium.
(§4) For treating cultured cells, concentrated DHT stock was diluted as 10× working solutions (for example, for 0.9 μM final concentration, 10× is prepared as 9.0 μM) with the appropriate complete culture medium and used immediately. […] Six hrs post transfection, 111 μl of fresh 10× DHT working solutions was added to each well of 12-wells plate containing 1 ml medium and transfected cells.
(§5) Briefly, cells were suspended in 200 μl of PBS buffer and were then lysed with 400 μl of lysis buffer. The sample was then passed through the filter assembly resulting in the binding of the nucleic acids to the filter. The filter containing nucleic acids was then incubated with DNase I dissolved in DNase incubation buffer to degrade genomic and plasmid DNAs. The column was then rinsed with wash buffer and total RNA then eluted in a new tube for further analysis.
(§6) After the addition of dNTPs, the mixture was denatured at 65° C. for 5 minutes. This was followed by the addition of a master-mix containing 1× superscript buffer, 10 mM DTT, 5 mM Magnesium chloride, RNaseOUT and Superscript III reverse transcriptase. Reactions were carried out at 50° C. for 50 minutes and then terminated by incubation at 85° C. for 5 minutes. cDNA was then treated with RNase-H for 20 minutes at 37° C. to degrade RNA in DNA/RNA hybrid. 1 μl of cDNA was used as template for each subsequent PCR reaction.
(§7) The Denaturation, Annealing and Extension steps were performed 32 cycles for induced fusion RNA and 27 cycles for input RNA.

[4] = system: TMPRSS2-ERG fusion
Procedure: as §2, §3, §4, §5, §6, §7

[5] = system: BCR-KCNQ2 fusion; experiment: Nested RT-PCR of induced BCR-KCNQ2 fusion transcript in 293T cells; assay type: cell-based, human; conditions: for induction of BCR-KCNQ2 fusion: 293T, 3 days
Description: FIGS. 42A-42E. BCR-KCNQ2 fusion induced in 293T cells by chimeric RNAs utilizing/excluding the SINE element for three-way junction formation. FIG. 42A. Examples of chimeric RNA design using Short Interspersed Nuclear Element (SINE) commonly present in the human genome. The designed chimeric RNA forge a three-way junction that could be formed between two SINEs in genomic DNA (in the stem) and chimeric RNA (perpendicular and below the stem). Genomic DNA stems formed by DNA repeats such as SINE/SINE repeats may constitute stems over 300 nts in length. Short lines in gray regions represent base pairings. SINEs are in crimson. FIG. 42B. […] This chimeric RNA has GC content of 52%. FIG. 42B discloses the BCR targeting sequence as SEQ ID NO: 245, the KCNQ2 targeting sequence as SEQ ID NO: 246, and the chimeric sequence as SEQ ID NO: 247. FIG. 42C. Examples of chimeric RNA design targeting DNA sequences of BCR and KCNQ2 genes in the genome which form genomic stems using regions outside of known DNA repeats such as Short Interspersed Nuclear Element (SINE). SINEs are commonly present in the human genome are shown in solid boxes. The DNA stem could range from 10 bp to >100 bp with some mismatches. FIG. 42D. […] This chimeric RNA target intron regions and has GC content of 60.4%. FIG. 42D discloses the BCR targeting sequence as SEQ ID NO: 248, the KCNQ2 targeting sequence as SEQ ID NO: 249, and the chimeric sequence as SEQ ID NO: 250. FIG. 42E. BCR-KCNQ2 fusion can be induced by chimeric RNAs that form 3-way junction with genomic stems using SINE repeats (Set1A) or outside of SINE repeats (Set1B). 293T cells were transfected with chimeric RNA expression plasmid for 3 days and then harvested for nested RT-PCR.

[6] = system: TMPRSS2-ETV1 fusion; experiment: RT-PCR detection of induced TMPRSS2-ETV1 fusion transcript in LNCaP cells; assay type: cell-based, human; conditions: LNCaP, two-round nested PCR
Procedure: • 1st Round: Top down PCR with TMPRSS2 ex-1 F1 and ETV1 ex-6 R1 • Denaturation 94° C., 30 sec • Annealing * , 45 sec • Extension 72° C., 60 sec
The Denaturation, Annealing and Extension steps were performed 2 cycles. • 2 cycles at each temperature: 62° C., 61° C., 60° C. . . .
Long Range PCR for Detecting Genomic DNA Fusion Junction

[7] = LNCaP, 4 μg/ml α-amanitin, 0.9 μM DHT

Molecule: CC[C@H](C)[C@@H]1NC(=O)CNC(=O)[C@@H]2Cc3c([nH]c4cc(O)ccc34)[S+]([O-])C[C@@H](NC(=O)CNC1=O)C(=O)N[C@@H](CC(N)=O)C(=O)N1C[C@H](O)C[C@H]1C(=O)N[C@@H]([C@@H](C)[C@@H](O)CO)C(=O)N2 (stereo in doubt) [α-amanitin, reference compound]
- effect of α-amanitin treatment on TMPRSS2-ETV1 induction by antisense input RNA ([1]; lane 11 vs. 15): reduced the induction by antisense input RNAs
- effect of α-amanitin treatment on TMPRSS2-ERG induction by antisense input RNA ([2]; lane 1 vs. 5): reduced the induction by antisense input RNAs

B1: Antisense-2: input RNA, SEQ ID NO: 5 (nucleic acid)
antisense: TGTGCTCGCTTCGGCAGCACATATACTAACATTGGAACGATCCTGCAGCTTGAGCCATTCACCTGGCTAGGGTTACATTCCATATTGATGGTGACCCTGGCTGGGGGTTGAGACAGCCAATCCTGCTGAGGGACGCGTGGGCTCATCTTGGAAGTCTGTCCATAGTCGCTGGAGGAGGACGCGGTCATCTCTGTCTTAGCCAGGTGTGGCGTTCCGTAGGCACACTCAAACAACGACTGGTCCTCACTCACAACTGATAAGGCTTCCTGCCGCGCTCCAGGCGGCGCTCCCCGCCCCTCGCCCTCCGCCTCCGCCTCCGCCTCCTGCTTAGCTCGCGCCTACTC
- induction of endogenous TMPRSS2-ERG fusion transcript (RT-PCR) [3]: induced a clear band of 721 bp; also recorded: capable of inducing the fusion transcript
- Cell line(s) identified ([3]; fusion gene partners TMPRSS2-ERG, LNCaP): LNCaP
- induction with U6 promoter compared to CMV promoter [4]: more pronounced

B2: Antisense-C2: input RNA, SEQ ID NO: 19 (nucleic acid)
antisense: TGTGCTCGCTTCGGCAGCACATATACTAACATTGGAACGATCCTGCAGTGAGCTCATGCTATTCCTATGACATAGATGAGCACTGGGTAGACCCCGTCCTGGTAACACTATTCATGCACTAACCAGCACTCCCAGTCCTCCTCCCCAAAGAGAAAAGGCGCACCGGTGCTCCCAG
- induction of endogenous TMPRSS2-ERG fusion transcript (RT-PCR) [3]: complete loss of induction

B3: Antisense-B3: input RNA, SEQ ID NO: 17 (nucleic acid)
antisense: TGTGCTCGCTTCGGCAGCACATATACTAACATTGGAACGATCCTGCAGTGGGGAGCATTTCCAGATGGAGAAACTGCAAGGAAAAGCATAGAAGTGGGGCCACCCCTCGTGAGCTGGGGAGGGCTCACCTGCCGCGCTCCAGGCGGCGCTCCCCGCCCCTCGCCCTCCGCCTCCG
- induction of endogenous TMPRSS2-ERG fusion transcript (RT-PCR) [3]: complete loss of induction

B4: S1B 10-8: chimeric RNA, BCR-KCNQ2, GC content 60.4% (nucleic acid)
chain: CCAGGTGGAGCTGCCCATGCCTTCCCCGCAGGGCTGAGCCCACTCAGCCGTGAACCAAAGTCCACTAGTCCCATCAAAAGTGCTAACAGGAAGGGGGGATC
modifications: listed as DNA, further chemistry not given here
- induction of BCR-KCNQ2 fusion [5]: induce BCR-KCNQ2 fusion in 293T cells
- Cell line(s) identified ([5]; fusion gene partners BCR-KCNQ2, 293T): 293T

B5: SEQ ID NO: 247: chimeric RNA utilizing the SINE element to induce BCR-KCNQ2 fusion, GC content 52% (S1A 200-1 or S1A 200-2) (nucleic acid)
chain: AGCAGGGGGGGCGGTGTCCACACATCCTCACTACGCTGATTTGCCATTTGACTTACACAGTGCAACTCATGTGTTACCAGCCTTCACTGTTCTGACAGCT
modifications: listed as DNA, further chemistry not given here
- induction of BCR-KCNQ2 fusion [5]: induce BCR-KCNQ2 fusion

B6: Sense-2 Long: input RNA, SEQ ID NO: 3 (nucleic acid)
sense: TGTGCTCGCTTCGGCAGCACATATACTAACATTGGAACGATCCTGCAGGAGTAGGCGCGAGCTAAGCAGGAGGCGGAGGCGGAGGCGGAGGGCGAGGGGCGGGGAGCGCCGCCTGGAGCGCGGCAGGAAGCCTTATCAGTTGTGAGTGAGGACCAGTCGTTGTTTGAGTGTGCCTACGGAACGCCACACCTGGCTAAGACAGAGATGACCGCGTCCTCCTCCAGCGACTATGGACAGACTTCCAAGATGAGCCCACGCGTCCCTCAGCAGGATTGGCTGTCTCAACCCCCAGCCAGGGTCACCATCAAAATGGAATGTAACCCTAGCCAGGTGAATGGCTCAAGGAACTCTCCTGATGAATGCAGTGTGGCCAAAGGCGGGAAGATGGTGGGCAGCCCAGACACCGTTGGGATGAACTACGGCAGCTACATGGAGGAGAAGCACATGCCACCCCCAAACATGACCACGAACGAGCGCAGAGTTATCGTGCCAGCAGATCCTACGCTATGGAGTACAGACCATGTGCGGCAGTGGCTGGAGTGGGCGGTGAAAGAATATGGCCTTCCAGACGTCAACATCTTGTTATTCCAGAACATCGATGGGAAGGAACTGTGCAAGATGACCAAGGACGACTTCCAGAGGCTCACCCCCAGCTACAACGCCGACATCCTTCTCTCACATCTCCACTACCTCAGAGAGACTCCTCTTCCACATTTGACTTCAGATGATGTTGATAAAGCCTTA
- induction of endogenous TMPRSS2-ERG fusion transcript (RT-PCR) [3]: failed to induce fusion transcripts

B7: Sense-2: input RNA, SEQ ID NO: 2 (nucleic acid)
sense: TGTGCTCGCTTCGGCAGCACATATACTAACATTGGAACGATCCTGCAGGAGTAGGCGCGAGCTAAGCAGGAGGCGGAGGCGGAGGCGGAGGGCGAGGGGCGGGGAGCGCCGCCTGGAGCGCGGCAGGAAGCCTTATCAGTTGTGAGTGAGGACCAGTCGTTGTTTGAGTGTGCCTACGGAACGCCACACCTGGCTAAGACAGAGATGACCGCGTCCTCCTCCAGCGACTATGGACAGACTTCCAAGATGAGCCCACGCGTCCCTCAGCAGGATTGGCTGTCTCAACCCCCAGCCAGGGTCACCATCAAAATGGAATGTAACCCTAGCCAGGTGAATGGCTCAAG
- induction of endogenous TMPRSS2-ERG fusion transcript (RT-PCR) [3]: failed to induce fusion transcripts

B8: Sense-TMPRSS2-ETV1-A1: input RNA, SEQ ID NO: 42 (nucleic acid)
sense: TGTGCTCGCTTCGGCAGCACATATACTAACATTGGAACGATCCTGCAGCCAGTTGGTGGAAGAGAGTCCCCCGGGGTCCCCAAAGCTGGCTCCTAGTCTACTGAATCTAACTAAGACTTTAACTTGGAACGATTTACATAATGCGGCA
- induction of TMPRSS2-ETV1 fusion transcript (RT-PCR) [6]: failed to induce fusion transcript
- α-amanitin treatment time after which sense input RNA began to induce TMPRSS2-ETV1 fusion [1, 7]: 24 h

B9: Sense-5: input RNA, SEQ ID NO: 29 (nucleic acid)
sense: TGTGCTCGCTTCGGCAGCACATATACTAACATTGGAACGATCCTGCAGGAGTAGGCGCGAGCTTCCATCTCTCACTCCTGTCTGGCGGAGGGCGAGGGGCGGGGAGCGCCGCCTGGAGCGCGGCAGGTGAGCGGCGGATTGGCTGTCTCAACCCCCAGCCAGGGTCACCATCAAAATGGAATGTAACCCTAGCCAGGTGAATGGCTCAAG
- α-amanitin treatment time after which sense input RNA began to induce TMPRSS2-ERG [2, 7]: 12 h
- induction of endogenous TMPRSS2-ERG fusion transcript (RT-PCR) [3]: fails to induce TMPRSS2-ERG gene fusion
